Legend:
Type in all cases: biochemical
[1] = Small-scale anaerobic C—H amination with purified enzymes, azide 1
Summary of the method: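 Purified P450 or P411 enzymes (0.1-0.5% catalyst loading) in 400 μL reactions of 0.1 M potassium phosphate pH 8.0 with a catalase/glucose oxidase oxygen-depletion system were made anaerobic under argon, given 10 μL of 80 mM arylsulfonyl azide in DMSO, and stirred 24 h at room temperature. After HCl quench and acetonitrile addition, sultam was quantified by HPLC at 220 nm against an internal standard; enantioselectivity was measured by chiral HPLC.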

[2] = Small-scale anaerobic C—H amination with purified enzymes, azide 4; settings: 0.1% loading; azide 4
Experimental: (§1) Hemin also was capable of catalyzing this reaction when reduced with dithionite (Table 13).
(§2) Small scale reactions containing either 0.1% loading of ABC-CIS or ABC-T268A or 1% loading of hemin with azides 1, 4, or 6 according to standard procedures.
(§3) Small-scale reactions (400 μL) were conducted in 2 mL crimp vials (Agilent Technologies, San Diego, Calif.) containing buffer (0.1 M potassium phosphate pH 8.0), enzyme (0.1-0.5% catalyst loading) and oxygen depletion system (10× stock solution containing 14,000 U/mL catalase, 1,000 U/mL glucose oxidase dissolved in 0.1 M KPi pH 8.0). Enzyme (P450 or P411) solution and oxygen depletion mixture were added to the vial with a small stir bar before crimp-sealing. Portions of phosphate buffer (190 μL, 0.1 M, pH=8.0), glucose (40 μL, 250 mM) and NADPH (40 μL, 20 mM), or multiples thereof, were combined in a larger crimp sealed vial and degassed by sparging with argon for at least 5 min. In the meantime, the headspace of the sealed 2 mL reaction vial with the P450 solution was made anaerobic by flushing argon over the protein solution (with no bubbling). The buffer/reductant/glucose solution (270 μL) was syringed into the reaction vial with continuous argon purge of the vial headspace. An arylsulfonyl azide solution in DMSO (10 μL, 80 mM) was added to the reaction vial via a glass syringe, and the reaction was left stirring for 24 h at room temperature under positive argon pressure. Final concentrations of the reagents were typically: 2 mM arylsulfonyl azide, 2 mM NADPH, 25 mM glucose, 2 or 10 μM P450. Reactions were quenched by adding 30 μL 3 M HCl under argon. To the vials were then added acetonitrile (430 uL) and internal standard (o-toluenesulfonamide 10 mM in 50% acetonitrile 50% water, 1 mM final concentration). […] A portion (20 μL) of the supernatant was then analyzed by HPLC. […] Sultam formation was quantified comparison of integrated peak areas of internal standard and sultam at 220 nm to a calibration curve made using synthetically produced sultam and internal standard.

[3] = Small-scale anaerobic C—H amination with purified enzymes, azide 6; settings: 0.1% loading; azide 6
Experimental: as §1, §2, §3

[4] = CS heme-Na2S2O4 + NADPH (heme domain)
[5] = Complete system (CS), holoenzyme

B1: ABC-T268A: P450BM3 variant: T268A, C400S (protein, listed as Bacillus megaterium)
chain: TIKEMPQPKTFGELKNLPLLNTDKPVQALMKIADELGEIFKFEAPGRVTRYLSSQRLIKEACDESRFDKNLSQALKFVRDFAGDGLFTSWTHEKNWKKAHNILLPSFSQQAMKGYHAMMVDIAVQLVQKWERLNADEHIEVPEDMTRLTLDTIGLCGFNYRFNSFYRDQPHPFITSMVRALDEAMNKLQRANPDDPAYDENKRQFQEDIKVMNDLVDKIIADRKASGEQSDDLLTHMLNGKDPETGEPLDDENIRYQIITFLIAGHEATSGLLSFALYFLVKNPHVLQKAAEEAARVLVDPVPSYKQVKQLKYVGMVLNEALRLWPTAPAFSLYAKEDTVLGGEYPLEKGDELMVLIPQLHRDKTIWGDDVEEFRPERFENPSAIPQHAFKPFGNGQRASIGQQFALHEATLVLGMMLKHFDFEDHTNYELDIKETLTLKPEGFVVKAKSKKIPLGGIPSPSTEQSAKKVRKKAENAHNTPLLVLYGSNMGTAEGTARDLADIAMSKGFAPQVATLDSHAGNLPREGAVLIVTASYNGHPPDNAKQFVDWLDQASADEVKGVRYSVFGCGDKNWATTYQKVPAFIDETLAAKGAENIADRGEADASDDFEGTYEEWREHMWSDVAAYFNLDIENSEDNKSTLSLQFVDSAADMPLAKMHGAFSTNVVASKELQQPGSARSTRHLEIELPKEASYQEGDHLGVIPRNYEGIVNRVTARFGLDASQQIRLEAEEEKLAHLPLAKTVSVEELLQYVELQDPVTRTQLRAMAAKTVCPPHKVELEALLEKQAYKEQVLAKRLTMLELLEKYPACEMKFSEFIALLPSIRPRYYSISSSPRVDEKQASITVSVVSGEAWSGYGEYKGIASNYLAELQEGDTITCFISTPQSEFTLPKDPETPLIMVGPGTGVAPFRGFVQARKQLKEQGQSLGEAHLYFGCRSPHEDYLYQEELENAQSEGIITLHTAFSRMPNQPKTYVQHVMEQDGKKLIELLDQGAHFYICGDGSQMAPAVEATLMKSYADVHQVSEADARLWLQQLEEKGRYAKDVWAG
modifications: cytochrome P450NADPH-P-450 reductase precursor, cytochrome P450 (BM3), CYP102A1
notes: P450BM3 variant: T268A, C400S
[1]; 0.1% loading, azide 1, TTN
  Product (3): 135
[1]; 0.1 mol % catalyst loading (2 μM), 2 mM azide 1, 2 mM NADPH, benzosultam 3
  TTN: 120
[1]; 0.1 mol % catalyst loading, (S−R)/(S+R), benzosultam 3
  % ee: 58%
[1]; Boiled P450heme
  % activity: 9.1%
  % ee: 3%
  TTN: 10
[1]; Boiled P450holo
  % activity: 30%
  % ee: 1%
  TTN: 33
[1]; CS + CO
  % activity: 4.4%
  TTN: 5
[1]; CS aerobic
  % activity: 9.1%
  % ee: 60%
  TTN: 10
[1]; CS heme
  % activity: 145%
  % ee: 91%
[1]; CS heme (heme domain, 2 mM Na2S2O4)
  TTN: 160
[1]; CS heme + CO
  % activity: 0%
  TTN: 0
[1]; CS heme aerobic
  % activity: 0%
  TTN: 0
[1]; [4]
  % activity: 3.6%
  TTN: 4
[1]; CS-NADPH + Na2S2O4
  % ee: 44%
  TTN: 130
[1]; CS-NADPH + Na2S2O4, residual activity (CS = 100%)
  % activity: 120%
[1]; [5]
  % ee: 38%
  TTN: 110
[1]; NADPH (2 mM), 0.1 mol % loading, azide 1
  activity with reductant NADPH: 110
[1]; dithionite (2 mM), 0.1 mol % loading, azide 1
  activity with reductant Dithionite: 110
[2]
  Product (5): 22
[3]
  Product (7): 27
